The numbers were not newly measured in paper PMC4497409, which cites them from elsewhere.

The target of series [1] is Frizzled4 CRD (Mus musculus) (UniProt Q61088). Briefly: ELISA.
Series [2] has as its target Frizzled4 CRD (Homo sapiens) (UniProt Q9ULV1). The series is described as follows: AlphaScreen. On the technique in general: Alpha assays give light when donor and acceptor beads are brought close together.
For series [3], the target named is Lrp6 P1E1P2E2 (Homo sapiens) (UniProt O75581). The series is described as follows: AlphaScreen.
Sequence of Lrp6 P1E1P2E2 (Homo sapiens) (O75581 20-630): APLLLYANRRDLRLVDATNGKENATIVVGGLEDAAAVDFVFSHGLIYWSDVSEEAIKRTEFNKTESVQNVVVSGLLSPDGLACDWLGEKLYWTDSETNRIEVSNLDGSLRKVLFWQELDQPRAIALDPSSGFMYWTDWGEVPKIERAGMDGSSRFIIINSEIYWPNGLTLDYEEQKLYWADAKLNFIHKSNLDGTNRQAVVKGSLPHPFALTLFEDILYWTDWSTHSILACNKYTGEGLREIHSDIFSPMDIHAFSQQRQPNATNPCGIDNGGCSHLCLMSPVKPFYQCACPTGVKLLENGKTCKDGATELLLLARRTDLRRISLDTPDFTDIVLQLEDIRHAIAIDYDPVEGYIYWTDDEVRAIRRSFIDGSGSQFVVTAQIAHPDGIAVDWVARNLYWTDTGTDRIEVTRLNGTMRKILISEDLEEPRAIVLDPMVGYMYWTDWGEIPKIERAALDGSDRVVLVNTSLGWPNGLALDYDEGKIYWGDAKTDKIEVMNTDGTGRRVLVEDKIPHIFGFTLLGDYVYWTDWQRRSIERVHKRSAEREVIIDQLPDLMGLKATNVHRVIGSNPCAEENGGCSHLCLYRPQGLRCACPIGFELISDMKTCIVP

Where “and” joins values, the source holds several entries; their conditions need not be identical. Identical values can stand only once.

Sequence of Frizzled4 CRD (Homo sapiens) (Q9ULV1 40-161): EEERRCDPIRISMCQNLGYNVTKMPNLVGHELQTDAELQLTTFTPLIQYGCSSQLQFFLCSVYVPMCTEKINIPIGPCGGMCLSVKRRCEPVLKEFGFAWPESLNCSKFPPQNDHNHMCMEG
Sequence of Norrin (P48744 25-131): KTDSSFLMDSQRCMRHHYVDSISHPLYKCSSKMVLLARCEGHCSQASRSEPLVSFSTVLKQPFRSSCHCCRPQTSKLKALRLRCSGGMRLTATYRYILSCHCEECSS
Sequence of Frizzled4 CRD (Mus musculus) (Q61088 40-161): as the sequence (Q9ULV1 40-161) above, with S12A, K94R, E102D, S103T counted along it

What is called Kd is a measure of binding affinity in units of concentration. With Norrin (from UniProt P48744), in series [1], the Kd is 3.5 nM.

In the case of Norrin (from UniProt Q00604), the Kd in series [2] is 11 nM and 5 nM; in series [3] it was 450 nM.
